Experimental data as given in patent publication US20170306015A1 (DEUTSCHES KREBSFORSCHUNGSZENTRUM STIFTUNG DES FFENTLICHEN …, published 2017).

Biological target: T1, L1-Fc (human L1-Fc protein comprising the ectodomain of L1) (human, UniProt P32004 20-1120)
T1 construct: extracellular domain; also called L1CAM; CD171; not shown: Fc part
Assay: SPR, BIAcore 3000, L1-Fc immobilised on CM5 chip, antibody injected
Protocol: (§1) Affinity to L1 may be determined by methods known in the art, as for example by surface plasmon resonance. The binding analysis for L1-OV52.24 was performed using a BIAcore 3000 equipped with a CM5 sensor chip. Briefly, a BIAcore CM5 chip was activated with EDC/NHS and various levels of L1-Fc were captured onto the activated surface. The remaining active sites were blocked by ethanolamine/HCl. L1-OV52.24 was bound to the L1-Fc surface and allowed to dissociate over time. The association and dissociation phases for each injection over each density surface were subjected to kinetic analysis.
as §1, with “The” for “Affinity to L1 may be determined by methods known in the art, as for example by surface plasmon resonance. The”, “analysis” for “analysis for L1-OV52.24”, “L1-mAb were” for “L1-OV52.24 was”

T1 sequence (P32004 20-1120): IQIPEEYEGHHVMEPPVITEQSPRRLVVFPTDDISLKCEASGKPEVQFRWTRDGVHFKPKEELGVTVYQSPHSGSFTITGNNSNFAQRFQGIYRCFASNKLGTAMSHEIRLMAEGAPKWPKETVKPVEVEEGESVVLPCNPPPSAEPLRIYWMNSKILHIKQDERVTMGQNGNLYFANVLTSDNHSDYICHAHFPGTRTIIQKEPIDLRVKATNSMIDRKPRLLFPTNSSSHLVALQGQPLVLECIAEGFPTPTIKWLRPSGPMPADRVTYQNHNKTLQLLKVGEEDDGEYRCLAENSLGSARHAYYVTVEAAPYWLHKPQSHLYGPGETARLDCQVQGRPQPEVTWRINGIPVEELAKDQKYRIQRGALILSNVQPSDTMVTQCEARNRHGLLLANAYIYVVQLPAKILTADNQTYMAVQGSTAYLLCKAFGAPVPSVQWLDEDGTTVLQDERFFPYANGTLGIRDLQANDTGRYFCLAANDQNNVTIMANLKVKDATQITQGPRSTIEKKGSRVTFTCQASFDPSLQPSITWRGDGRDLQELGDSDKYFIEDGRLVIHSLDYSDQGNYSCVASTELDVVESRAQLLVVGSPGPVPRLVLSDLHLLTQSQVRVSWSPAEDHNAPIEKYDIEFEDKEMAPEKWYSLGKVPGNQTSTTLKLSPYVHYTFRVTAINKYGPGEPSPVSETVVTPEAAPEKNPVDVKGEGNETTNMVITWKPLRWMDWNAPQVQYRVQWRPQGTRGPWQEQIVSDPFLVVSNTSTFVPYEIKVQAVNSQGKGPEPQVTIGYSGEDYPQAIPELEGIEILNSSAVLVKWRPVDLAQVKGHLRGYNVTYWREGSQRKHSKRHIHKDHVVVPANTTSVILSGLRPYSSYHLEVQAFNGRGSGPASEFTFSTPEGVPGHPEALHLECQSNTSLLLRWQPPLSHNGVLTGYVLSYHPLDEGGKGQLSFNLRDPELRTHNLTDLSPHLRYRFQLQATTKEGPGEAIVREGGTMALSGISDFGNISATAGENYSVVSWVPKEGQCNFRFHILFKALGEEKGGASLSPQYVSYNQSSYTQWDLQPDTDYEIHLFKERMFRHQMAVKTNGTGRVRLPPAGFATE

B1: monoclonal antibody L1-OV52.24 (antibody, IgG1, V domains shown)
VH: EVQLQQSGAELVRPGALVKLSCKASGFNIKDYYMQWVKQRPEQGLEWIGWIDPENGKTVFDPKFRGKASISADTSSNTAYLQLSSLTSEDTAVYYCARWNPLAFWGQGTLVTVSS
VL: DIVMTQSQKFMSTSVGDRVSVTCKASQNVGTNVAWYQQKPGHSPKALIYSTSYRYSGVPDRFTGSGSGTDFTLTIRNVQSEDLAEYFCQQYNTYPYTFGGGTKLEIK
notes: also called mAb L1-OV52.24; L1CAM mAb OV52.24
B1 gave a Kd of 2.41 nM.
